Target: CFP-Cav1 (human caveolin-1 with CFP at its N terminus) (human) (UniProt Q03135)
Experiment: FRET or BRET

UniProt Q03135, sequence (Q03135 whole entry): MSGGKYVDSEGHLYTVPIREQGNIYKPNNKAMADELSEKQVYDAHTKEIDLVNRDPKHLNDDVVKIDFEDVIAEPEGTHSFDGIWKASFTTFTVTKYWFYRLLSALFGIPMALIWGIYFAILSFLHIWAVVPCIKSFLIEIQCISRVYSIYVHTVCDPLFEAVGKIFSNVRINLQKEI

## YFP-tagged rat Na/K-ATPase α1 pump-null mutant D371N (natural protein)
  FRET efficiency: 15%
